The nature of this series: soluble on expression in E. coli; label from the status in PepcDB or PDB records.
Consider “MSLRTTDIRVRDLYFEYEDFRYRTPIKFGGVALGRVTLLNVRMTVESAAGKAATGFGSMPLGNVWAYPSRLLTYDQTLGAMRFLASRIADGYRLCGLSGHPIDITHQLEPELLLAGNDFTAIHRPSDPVPKLAVLVVASAFDAALHDAYGKLHGLNCFRTYTREFLPDDLGHYLGAEFNGLHLDDFITHEPKPSMPLYHLVGALDPITPEDVTQPVGDGLPEHLAEWITRDGLTHLKIKLNGDDLGWDVERCVRINAVAEDAQRARGVTTWWYSLDFNERCQNVGYLIEFLQKLRERTPAGYDRVQYVEQPTARDLNAHPENKMHAAAKLKPVVIDESLLDLESLKLSMEMGYTGVAFKACKGQTQTLLLAAAAQKYGLFRCVQDLTCVGASLIHSAGLAAHIPGVAAIESNGRQYCPTANVAWDAKFPGVFTITGGSMNTALLNGVGLGAVSEGHHHHHH”, for which the “soluble on expression in E. coli” value is reported as “soluble”.
With “MYAYDIYEPIGRKDGEIFPVIFALHGFGGDELDMAGRLELLMDRFVVVSMRGDVEYGPTYGFYHMVTEGDPNAREVDYTSLRVAEFIDEVCNDYVSIDKNQIFLVGFDQGAVLTISIMQSYGGQYKAAALLSGRLPHYLEERPANLMLKDKRIFIGHGIEDAVIQIAEAEEIAQFFQKMGCNVEKHSYFVGHNVNEAEEDDLYSWFESFLP” the entry was “not soluble”; with “MESVKCFDMITAFFDLSDSVHVVRKNGGLAFGKTWLGNFFVLVREVKILRATTEKFSLVNLRKLEPHSGQFRNQIREESAYRHPFLRIVVKVILAKRLRPLPYLTSKSK”, “not soluble”.
As for “MGSDKIHHHHHHMPILLLAQSDAHLSLGAAQGPGAELDRRACEQLDIPVLRRPLGGGVVWVDPGQLNYFFIFPAAAGVRRAPELFDRIAPWVLAVHAHFGLEVEVRGGQDFWCRGRKIGGTGAASIGHSLVLGGSFILEAQWTSFADCVAAPSAGFRAWLKEALEEDLGSWSRLLGRVVGPEVVLDACPALLHAAGWDVVVTRPTEAERRAMTQVELEDVDWEQPVRRRVRAGIKLKAGAFLTEQHWPDGHWLRVWTENGTFRRIAGSAWSAGQGDTLTGLQPGSERFDERLREMAGAGAALWGERLSETAVWAD”, the entry is “not soluble”; as for “MEKNEKNGVFSRVRSRWRSIFSKKANPVKLRDCNRLTFERILSDPNEQIGTIVAQATVEPITLPNGGGIALIQETTLYEEDYGLEDSSNFPIISETAQSLRRRMRRLSSGDLNVIRRMTEEIDFDLKNIIYDGNEITGETDADNGNDRACFKPGPDYPIDQQMLFLKQCIKKIDTRPPNMYYLTNGWSVDNFEALFKYMIRSGEDCSRDTLLRVEFRDCVVSLKSLYDFIEEYATFKGVKMHSDYVYAIVHSRNEKLERRLRGAIDSFMEIESKIRQARISYVSSFTINSPHTPNVSIIVKFCCLKPCNSDAKTKMRQISVQVDHVTGRSRMSLPDVRQHEGLVCECLGDFSLIRHRPTSVPVTKILDEHPPLIVDEEVRLKSSYQFNPVTGEPIPDDEQQQEQTEIEVNKKIKKPKIVPNQTLLGNEHDIFPRFSIFIGFYKASIEDPLEINDFVEMFPLILVLLEKAGIQELEDGDAPEKSVSKYPKKRSIVDGASSETCEDTQSVGSSESSEPRSPEFTEYSESEDTAADSETSDSESSSEDEKENMKSSIKELELIKDAPEDL”, “soluble”; as for “SERLTSPPRLMIVSDLDETMVDHHKDPENLALLRFNSLWEDAYRHDSLLVFSTGRAQTMYKKLRKEKPLLTPDVIITSVGTEIAYGNSMVPDDNWVEILNKKWDRGIVQEETSKFPELTLQGETEQRPHKLSFNIDKSKVKAVTKELSPRLEKRGVDVKFIFSGGNAFDVLAKGGGKGQALAYLLKKLKTEGKLPINTLACGDSGNDTELFTIPNVYGVMVSNAQEELLEWYAENAKDNANIIHASERCAGGITQAIGHFKLGPNLSPRDVSDFLECKADNVNPGHEVVKFFLFYERWRRGEVENCTTYTSSLKASCHPSGVFVHPSGAEKSLRDTIDELGKYYGDKKGKKFRVWTDQVLATDTTPGTWIVKLDKWEQTGDERKCCTTTVKFTSKEGEGFVWEHVQQIWSEETEIKDDSNWII”, “not soluble”.
Consider “MGSDKIHHHHHHMPLLDIRNLTIELNTNNTKVKVLEKVSLTLNAGEIHGLVGESGSGRSLLAKAILGALGPQWTVIADRLMLDGKNLLDMSPKQRRCLMGSDIAMIFQDPSGSLDPVKTIGSQLIESMTPNKAVAFWRRGKDTYLNALKWLHKVGIKNPKSLMSCYPWELSEGECQKVMIAMAIANRPKLLIADEPTNSVELNAQAQIFRLLSQLNQLQNVSILLISHELETLVQWCDHLTVLYGGQVMESGPTDEMIAHPFHPYTKALLKNLPDYTGKMRHKSYLPTLQGSSPSLHNMPAGCRLGPRCPEAQRNCVKQPALEHQKDRYFACHFPYLNEQDTDDDAIA”, for which the “soluble on expression in E. coli” value is on record as “not soluble”.
As for “MGSDKIHHHHHHMPYSSKEEAAQGWADIIARARSCSAGAARKAVAQLGRRDLFFLLTRLLGREEMFNDWCFARCAEVQRQPDGMLDLWAREHYKSTIITFGQSIRDILNDPEITIGIFSHSRPVAKGFLAQIKHEFEQNHALKTLYPDVLYSDPKRQSPRWSLDGGLVVRRSTNPKEATVEAWGLVDGQPTGKHFRLLVYDDVVTRESVTSPEMIAKVTECWALSLNLGARGGACRTIGTRYHYNDTYKTMMDRKAAEPRIHAATADGTPDGPSVFLPQNELADKRRRMGPFVFGCQMLQNPVADRMQGFREEWLRWWQPGAASWQAMNRYILVDPAASRKEQADWTVMLVVGLGADGNYYLIDGIRDRLNLTGRAGALFRLHRTYRPLAVGYEQYGMQADIEYMHTEMDRRNHRFDITPLAGRLAKADRIRRLVPLFEGGRVYLPRVCPFTDSEGRQRDLSRELVTEEYLAFPVCGHDDMLDCLARITDSALGAHPAVDSNAQYESTANMEYPLWT”, the entry is “not soluble”; as for “LDNPFYYLENFRQVLGWIAQRYDDLLDASERRFITEFAGLPMPAQGLLVRMVMRKGVMFRASKLSYAEIGDPHQAVLPLLQQDWVDTSPPLGLSELFQLLRRDELSQCFKAHAVKGPERKHEWLERLQPLYETAQPLEQWHPLLPDAVFGLKIMPLCDRLRLLYFGNLYQEWSEFVLADLGIYRYEKVEFSADSRGINQRDDINVCLQLHACREALETCVELHALAERAIAIECSNPWLNMRRAKLLYRIGQHAERLQDWPLALSVYRQSNYPGARSRQIRVLERNAEYTEAMALVEQAGLAPESDAEVQHLSRGTPRLQRKLGLTAARRPAARVVSRLDVQVTPSPGTSVERLIRLHLEEQQGGEVHYVENTLINSLFGLLCWRAIFAPLPGAFFHPFHSAPSDLYSPDFYQRRAALFDECLLQLESNDYRVTIREHFQSKSGLQSPFVFWGALTPQLLEQALHCLPADHLRLWFRRLLQDIKANRTGMPDLIQFFPEQRGYRMIEVKGPGDRLQDNQLRWLDFCAEHGMPVEVCYVQWA”, “not soluble”.
With “IRRVLVPVDTSEERARNQAKYLTSLPNIPDSVEATVLFVFPHQDYKGAPSHDFEEVDAAVTAAEHLEAKGISVERVAVGGEVGRKILDAATDRDADSIVIGGRKRSGIANVLLGGTTQDIMLAAERPVTLTG” the entry was “not soluble”; with “MRVEPLPGVPAATVDTDGERLLAVADYHAGIEAGLRYEGVELQSAAEARRERLLTCLRRARADRLVVIGDLGHAIGDPFADERAELETLFDALDVPVTLVKGNHD”, “not soluble”.
On to “MGSDKIHHHHHHMNIDAHNLNDLMYFSQVVEHGGFSAAERVLGISKSRLSRRLTELEAALGVRLLQRSTRKLALTEAGELFYQHCQAMLAEAQAAMNAVQQLRSSPRGSVRVSVPVTLSQTMLSRILPEFLHRYPEVKVHIRVTNRVIDLFEDSVDVALRVRSEPPQNANIVVRPLWRTEQMLVGAPSLLSQNAPPLVPDDLARFETLDTPSVDGRHVFNLIAPDGTRHLHEHDPRLVTADLMTIREAVLDGLGIAALPEMMYGNALRAGQLSPVMPGWTLPVPQLYAAFVSRQGMPPAVRAFVDYLVEKLDHGDYKQPSCPERDKKEAAAADVSST”, for which the “soluble on expression in E. coli” value was “not soluble”.
For the sequence “MSLDVTNRIERALTEALNQADMAGCPPRLAAAMRSAVFPRGARVRPRLCHSVALACGEDNPGITEAAGAALELMHCASLIHDDLPCFDGADLRRGRPSVHKAFGEPLAVLAGDAMIVLAFQTIARAEGQADRLLKLTQIIGGAVGVPFGIVAGQAWECETEINLAHYHRSKTGALFVAATAMGAASAGSDPEPWRMVGEKIGEAYQVADDLRDAAADVEEIGKPVGQDVAHDRPSAVREMGIDGAIYHLKSLVRGAVEAMPECTNGNELRSLIMSEATRLVPAEGHHHHHH”, the “soluble on expression in E. coli” value is on record as “soluble”.

The values are drawn from the DeepSol protein solubility set.
